Results published in patent publication US20120052007A1, “PERIPHERAL BLOOD SPARC BINDING ANTIBODIES AND USES THEREOF” (ABRAXIS BIOSCIENCE, LLC, priority 2010, published 2012).
Entries after “also recorded” stand apart in the source; their conditions may differ.

Assays:
[1] = tested on: HT29 (colon); settings: for Tumor growth inhibition (TGI): HT29 xenograft, versus control group at euthanasia of control animals
Excerpt: Female and male athymic NCr-nu mice between 5 and 6 weeks of age weighing approximately 20 g were purchased from Harlan, Inc. (Madison, Wis., USA). Human cancer cells HT29 (colon), PC3 (prostate), and MDA-MB-231 (breast) were propagated in cell culture and implanted subcutaneously at one million cells per flank of female (for MDA-MB-231 and HT29) or male (for PC3 prostate tumor) nude mice and allowed to grow to approximately 60-100 mm^3 before treatment was initiated. Treatments included 5-fluorouracil (5FU), docetaxel (Taxotere®), albumin-bound paclitaxel (nab-paclitaxel), nab-paclitaxel plus suntinib malate (Sutent®), or nab-paclitaxel plus bevacizumab (Avastin®) with or without exogenously administered SPARC). Control animals for each xenograft were administered PBS. The longest (length) and shortest (width) tumor diameters (millimeter) and tumor depth were measured twice weekly. The tumor volume was calculated with the formula: tumor volume (mm3)=width×length×depth. Tumor growth inhibition (TGI) was defined as the percentage of tumor volume reduction compared with the control group at the time of euthanasia for the control animals. Tumor doubling time was defined as the time required for the tumor volume to double […]. Animal weights were measured twice weekly. Statistical analysis was performed using the Prism program (GraphPad, San Diego, Calif., USA). Analysis of variance (ANOVA) statistic was used to compare tumor growth curves.

[2] = target: T1, recombinant human SPARC (Bio1-SPARC) (Homo sapiens, UniProt P09486); assay: ELISA binding to recombinant human SPARC (Bio1-SPARC); settings: for binding to Bio1-SPARC compared with HTI-SPARC (ELISA): Bio1-SPARC versus human platelet SPARC (FIG. 9)
T1 sequence (P09486 18-303): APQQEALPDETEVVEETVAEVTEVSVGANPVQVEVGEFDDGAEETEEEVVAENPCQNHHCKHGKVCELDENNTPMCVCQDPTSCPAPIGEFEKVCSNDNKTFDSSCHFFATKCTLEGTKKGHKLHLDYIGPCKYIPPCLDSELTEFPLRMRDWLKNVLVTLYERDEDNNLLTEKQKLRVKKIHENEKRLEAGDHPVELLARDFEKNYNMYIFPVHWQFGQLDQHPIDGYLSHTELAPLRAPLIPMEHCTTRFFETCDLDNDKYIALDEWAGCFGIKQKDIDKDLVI
Experimental: The ability of Imm1 through Imm12 (the mouse-derived anti-human SPARC antibodies) to bind recombinant human SPARC (Bio 1-SPARC) was characterized by multiple ELISA assays performed at various stages of purification. FIG. 7 presents the results of an ELISA assay performed on a serial dilution (1:1, 1:10, and 1:100) of antibody supernatants prior to purification. […] Another ELISA assay was performed with the purified antibodies (FIG. 8) at concentrations of 0.04 μg/mL, 0.2 μg/mL, 1 μg/mL, and 5 μg/mL. […] An additional ELISA was performed to compare the binding of the mouse derived Immseries antibodies to two different varieties of SPARC: Bio1-SPARC, and human platelet SPARC (HTI-SPARC) (FIG. 9).
ELISA assays were also used to characterize the SPARC binding of the fully human SPARC binding antibodies, Imm13 and Imm14. […] Surface plasmon resonance binding assays, performed on the Biacore 3000® (GE/Biacore International AB, Uppsala, Sweden), tested the binding of Fab 16 to both varieties of SPARC immobilized on a sensorchip (FIGS. 11 and 12).

[3] = target: T2, SPARC (Homo sapiens, UniProt P09486); assay: ELISA comparing Imm11, Imm12, Imm13, Imm14 binding to human SPARC; settings: ELISA (FIG. 13)
T2 sequence (P09486 18-303): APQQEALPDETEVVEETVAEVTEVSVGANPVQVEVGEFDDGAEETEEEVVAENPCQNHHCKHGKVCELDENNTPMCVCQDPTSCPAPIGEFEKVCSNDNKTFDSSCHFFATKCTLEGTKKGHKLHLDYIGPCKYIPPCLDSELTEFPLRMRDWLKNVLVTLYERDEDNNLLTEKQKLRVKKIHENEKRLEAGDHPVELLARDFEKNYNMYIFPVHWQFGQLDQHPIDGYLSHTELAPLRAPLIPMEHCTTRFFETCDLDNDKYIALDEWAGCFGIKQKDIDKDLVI
Experimental: An ELISA assay was also performed to directly compare the SPARC binding capabilities of selected mouse-derived anti human SPARC antibodies, Imm11 and Imm12, to the fully human Imm13 and Imm14, the results of which are presented in FIG. 13.

[4] = target: T3, mouse SPARC (Mus musculus, UniProt P07214); assay: ELISA binding to murine SPARC (FIG. 16); settings: ELISA (FIG. 16)
T3 sequence (P07214 18-302): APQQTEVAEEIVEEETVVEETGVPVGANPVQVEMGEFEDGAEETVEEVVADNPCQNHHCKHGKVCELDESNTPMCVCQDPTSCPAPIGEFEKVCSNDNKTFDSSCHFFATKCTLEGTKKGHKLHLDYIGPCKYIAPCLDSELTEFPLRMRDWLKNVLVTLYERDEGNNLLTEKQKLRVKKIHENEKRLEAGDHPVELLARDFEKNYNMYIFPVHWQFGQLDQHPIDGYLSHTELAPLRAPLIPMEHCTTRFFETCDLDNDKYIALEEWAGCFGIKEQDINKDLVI

[5] = tested on: recombinant human SPARC protein; assay: Tube Formation Assay (AngioKit) with SPARC and SPARC binding antibodies; type: cell-based; settings: 300 μg/mL antibody with 10 μg/mL recombinant human SPARC
Experimental: This assay was performed using the TCS Cellworks human AngioKit model kit (TCS-ZHA-1000, TCS Cell Works, Buckingham, UK) as described in Example 10 above. The media contained 10 μg/mL recombinant human SPARC protein. The media also contained 300 μg/mL of one of the above prepared mouse SPARC binding monoclonal antibodies (Imm12, Imm14, mHTI), or a control (mouse IgG).
To examine the effect of SPARC on tubule formation, and interference with that function by SPARC binding monoclonal antibodies, the number of tubules formed and their length was evaluated by light microscopy.

[6] = target: T4, denatured human SPARC (Homo sapiens, UniProt P09486); assay: Western blot against denatured SPARC; type: binding; settings: SDS polyacrylamide gel
T4 sequence (P09486 18-303): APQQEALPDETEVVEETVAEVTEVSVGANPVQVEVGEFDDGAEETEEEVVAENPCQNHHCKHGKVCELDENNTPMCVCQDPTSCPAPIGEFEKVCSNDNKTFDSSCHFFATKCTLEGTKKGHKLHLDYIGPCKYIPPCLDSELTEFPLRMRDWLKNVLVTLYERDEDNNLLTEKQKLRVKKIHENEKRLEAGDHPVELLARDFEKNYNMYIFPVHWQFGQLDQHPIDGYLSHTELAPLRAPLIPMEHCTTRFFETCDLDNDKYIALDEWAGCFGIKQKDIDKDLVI
Excerpt: Western blotting was used to determine whether the Imm series antibodies bind to linear or conformational epitopes. In this analysis, SPARC protein was run on a polyacrylamide gel in the presence of SDS. Accordingly, the SPARC protein on the gel was in its denatured form. The Imm series antibodies were used as primary antibodies and were then probed with goat anti-mouse IgG. BSA was used as a negative control.

[7] = tested on: HT29 colon xenografts; assay: Tumor localization of Alexa 680 labeled antibodies in HT29 xenografts; type: in vivo, mice; settings: 200 ug/mouse i.v. day 1, Alexa 680 label, followed 36 days
Experimental: Nude mice implanted with subcutaneous HT29 colon xenografts were treated with Imm series antibodies labeled with labeled with Alexa 680 fluorescent dye at dose of 200 ug/mouse. The labeled Imm antibodies were formulated in saline and administered intravenously on day 1. The fluorescent signal was followed in these mice over the course of 36 days.

[8] = tested on: LL/2 (Lewis Lung Carcinoma); assay: LL/2 Lewis Lung Carcinoma survival / lung metastasis model; type: in vivo, mice; settings: 200 μg/mouse i.p. twice weekly for 4 weeks, versus mouse control IgG
Experimental: C57BL male mice (approx. 6 weeks old) were weighed, and then injected intravenously with approximately 1×10^6 cells (approximately 0.1 mL) of LL/2 (Lewis Lung Carcinoma) with 25-gauge needle. A minimum of 10 animals was used per group. Twice weekly for 4 weeks, each animal in all groups received 200 μg/mouse of a test antibody or mouse IgG. These test articles/antibodies were dosed via intra-abdominal injection into the peritoneal cavity with a 25-27 gauge needle. The first dose was administered within 30 minutes of tumor cell injection.
Animals were weighed prior to tumor cell injection, and twice weekly prior to dosing. All animals were examined twice daily for mortality/morbidity. At the end of the experiment, the mice were killed, and primary tumors and lungs were removed, fixed, and embedded. Euthanized animals and any animals found dead prior to rigor mortis were necropsied. Plasma and lungs from all animals were collected and weighed at termination. Lungs were infused with and then immersed in 10% Neutral buffered formalin. Tissues were stored for additional gross and histopathologic analysis.
Animals were administered either mHTI, Imm12, or Imm14. A negative control group was administered mIgG. The antibodies were formulated in PBS and were administered in at dose of 200 μg/mouse, twice weekly, for four weeks. The survival of the animals was then recorded over […].

[9] = target: T2, SPARC; assay: ELISA binding to human SPARC (FIG. 16); settings: ELISA (FIG. 16)
[10] = antibody supernatants prior to purification, dilutions 1:1, 1:10, 1:100 (FIG. 7)
[11] = purified antibodies at 0.04, 0.2, 1 and 5 μg/mL (FIG. 8)

bevacizumab: anti-VEGF antibody, Avastin
Tumor growth inhibition (TGI) [1]: 75%

O=c1[nH]cc(F)c(=O)[nH]1 [Imm 5-FU, 5-fluorouracil]
Tumor growth inhibition (TGI) [1]: 89.8%
body weight / tolerability ([1]; mouse, in vivo): without decrease in body weight

B1: Imm4: mouse-derived anti-human SPARC antibody from hybridoma, IgG1 (κ) (antibody, V domains shown)
VH: AASGFAFSSYDMSWVRQTPEKRLEWVAYITSGGGSTYYPDTVKGRFTISRDNAKNTLYLQMSSLKSEDTAMYYCAGSRSWFAYWGQGTTVTV
VL: GEGVSFSCRASQSIGTGIHWYQRRTNGSPRLLIKYASESISGIPSRFSGSGSGTDFTLTINSVESEDIADYYCQQSYSWPLTFGAGTKLELK
binding to Bio1-SPARC compared with HTI-SPARC (ELISA) [2]: bind Bio1-SPARC significantly better than HTI-SPARC
Bio1-SPARC binding (ELISA) [2, 10]: highest Bio1-SPARC binding
Bio1-SPARC binding (ELISA) [2, 11]: highest Bio1-SPARC binding

B2: Imm6: mouse-derived anti-human SPARC antibody from hybridoma, IgG1 (κ) (antibody, V domains shown)
VH: TVTGYSITSDSAWNWIRQFPGNKLEWMGHISYSGSTSYNPSLKSRISITRDTSKDQFFLQLNSVTTEDTATYYCARGSYYGNFGFTYWGQGT
VL: GETVTITCQASENIASDLAWYQKEGRSPQLLVYEARNLADGVPSRFSGSGSDTLYSLNIHSLQSEDVARYYCQHYYGTPWTFGGGTKPRAN
Bio1-SPARC binding (ELISA) [2, 10]: highest Bio1-SPARC binding

B3: Imm13: fully human anti-human SPARC antibody created from Fab6, IgG1 (κ) (antibody, V domains shown)
VH: QVQLVQSGGGLVQPGGSLRLSCAASGFTVSSNYMSWVRQAPGKGLEWVSVIYSGGSTYYADSVKGRFTISRDNSKNTLYLQMNSLRAEDTAVYYCARGIAAAGLDYWGQGTLVTVSP
VL: ELVLTQPPSVSAAPGQKVTISCSGSSSNIGNNYVYWYQQLPGTAPKLLIYRNNQRPSGVPDRFSGSKSGTSASLAISGLRSEDEADYYCAAWDDSLSGWVFGGGTKLTVL
affinity for SPARC relative to mouse derived Imm11 and Imm12 [3]: higher affinity

B4: Imm10: mouse-derived anti-human SPARC antibody from hybridoma, IgG1 (κ) (antibody, V domains shown)
VH: AASGFTFSYYGMSWVRQTPDKRLEWVATISSGGSYTYYPDSVKGRFTISRDNSENTLYLQMNSLKSEDTAMYFCARRGSSGDYYGMDYWGQG
VL: GEKVTMSCKSSQSLLYSNSQKNYLAWYQQKPGQSPKLLIYWASTRESGVPPRFTGSGSGTDFSLTISSVKAEDLAVYYCQQYYSFPRTFGGG
Bio1-SPARC binding (ELISA) [2, 10]: highest Bio1-SPARC binding

B5: Imm12: mouse-derived anti-human SPARC antibody from hybridoma, IgG1 (κ), SEQ ID NOs 7 and 14 (antibody, V domains shown)
VH: KASGYTFTKYGMNWVKQAPGKGLQWMGWINTNTGEPTYAEEFKGRFAFSLETSASTAYLQINNLENADSATYFCTRGSSYFDYWGQGTTVTV
VL: GQRATISYRASKSVSTSGYSYMHWNQQKPGQPPRLLIYLVSNLESGVPARFSGSGSGTDFTLNIHPVEEEDAATYYCQHIRELTRSVEAPSS
binding to mouse SPARC [4]: not mouse SPARC
binding to Bio1-SPARC compared with HTI-SPARC (ELISA) [2]: bind both varieties of human SPARC equally well
Bio1-SPARC binding (ELISA) [2, 10]: highest Bio1-SPARC binding; also recorded: highest binding overall
Bio1-SPARC binding (ELISA) [2, 11]: highest Bio1-SPARC binding
effect on SPARC-induced tubule formation [5]: only very slight formation of very short tubules
binding to denatured SPARC [6]: binding
localization at the tumor site [7]: do not localize at the tumor site
inhibition of lung LL/2 metastasis [8]: did not inhibit lung LL/2 metastasis
binding to human SPARC [9]: specifically bind to human SPARC

B6: Imm2: mouse-derived anti-human SPARC antibody from hybridoma, IgG1, 2b (κ) (antibody, V domains shown)
VH: TVTGYSITSDHAWSWIRQFPGNKLEWMGYISYSGSTSYNPSLKSRVSVTRDTSKNHFFLQLNSVTTEDTATYYCARAAFIGGWFAYWGQGTT
VL: GEKVTITCSASSSVSYMHWFQQKPGTSPKLWIYSTPNLASGVPARFSGSGSGTSYSLTISRMEAEDAATYYCQQRSSYPLTFGGGTKLELKQ
localization at the tumor site [7]: localizes well
